Experimental data: publication PMC5816707

Legend:
TIAL1 = molecular target: T1, TIAL1 (Homo sapiens (cDNA from HEK293 cells), UniProt Q01085 1-375); assay: EMSA
T1 sequence: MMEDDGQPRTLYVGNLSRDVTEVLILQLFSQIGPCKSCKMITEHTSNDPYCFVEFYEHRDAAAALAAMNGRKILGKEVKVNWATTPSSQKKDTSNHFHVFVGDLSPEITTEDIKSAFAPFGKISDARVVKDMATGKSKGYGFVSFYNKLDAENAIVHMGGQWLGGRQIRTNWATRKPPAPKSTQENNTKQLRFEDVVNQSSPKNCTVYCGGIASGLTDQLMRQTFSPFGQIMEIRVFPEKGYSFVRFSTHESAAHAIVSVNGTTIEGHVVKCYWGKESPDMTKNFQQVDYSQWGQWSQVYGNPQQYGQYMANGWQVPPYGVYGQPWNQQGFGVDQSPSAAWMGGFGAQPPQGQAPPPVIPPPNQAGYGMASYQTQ

TIA1 = molecular target: T2, TIA1 (Homo sapiens (cDNA from HEK293 cells), UniProt P31483 1-386); assay: EMSA
T2 sequence: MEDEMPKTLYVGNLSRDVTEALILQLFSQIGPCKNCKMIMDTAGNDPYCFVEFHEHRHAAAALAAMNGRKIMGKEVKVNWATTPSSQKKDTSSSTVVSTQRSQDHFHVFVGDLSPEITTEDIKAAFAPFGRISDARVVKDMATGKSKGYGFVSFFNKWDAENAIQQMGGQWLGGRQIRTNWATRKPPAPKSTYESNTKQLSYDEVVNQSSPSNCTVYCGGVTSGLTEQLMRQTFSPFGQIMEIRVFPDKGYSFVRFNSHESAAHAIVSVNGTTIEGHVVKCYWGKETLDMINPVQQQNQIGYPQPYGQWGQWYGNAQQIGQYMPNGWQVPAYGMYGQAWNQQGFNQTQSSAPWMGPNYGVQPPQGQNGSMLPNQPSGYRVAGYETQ

AAAAAAAAAAAAAAAAAA (ssRNA) [poly(A)18]: no binding (TIAL1); no binding (TIA1).
